Reference: paper PMC10209092

Target: endogenous AMPKα (5'-adenosine monophosphate-activated protein kinase, α subunit), Q13131
Test: co-immunoprecipitation, quantified band intensity
Conditions: chain shown with the change, n=2 (WT n=3), read off a plot

Chain of endogenous AMPKα (5'-adenosine monophosphate-activated protein kinase, α subunit), Q13131 (Q13131 whole entry): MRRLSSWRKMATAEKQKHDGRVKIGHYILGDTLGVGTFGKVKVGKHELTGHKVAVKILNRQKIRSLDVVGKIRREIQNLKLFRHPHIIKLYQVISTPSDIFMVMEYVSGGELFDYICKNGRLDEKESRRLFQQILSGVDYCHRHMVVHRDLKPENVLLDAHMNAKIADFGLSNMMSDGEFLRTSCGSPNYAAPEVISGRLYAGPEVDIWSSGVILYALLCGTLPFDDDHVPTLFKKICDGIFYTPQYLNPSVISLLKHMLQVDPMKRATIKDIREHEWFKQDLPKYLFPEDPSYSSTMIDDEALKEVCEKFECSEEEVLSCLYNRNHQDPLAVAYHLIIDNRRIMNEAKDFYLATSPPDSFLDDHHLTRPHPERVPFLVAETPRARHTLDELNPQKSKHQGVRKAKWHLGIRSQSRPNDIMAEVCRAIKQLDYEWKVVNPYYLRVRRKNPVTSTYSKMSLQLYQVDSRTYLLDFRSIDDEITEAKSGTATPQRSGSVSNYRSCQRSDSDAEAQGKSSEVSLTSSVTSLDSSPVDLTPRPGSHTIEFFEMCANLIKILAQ

B1: myc-tagged ULK1 (UNC-51 like kinase 1), wild type, O75385 S556A; T660A (protein)
chain: MEPGRGGTETVGKFEFSRKDLIGHGAFAVVFKGRHREKHDLEVAVKCINKKNLAKSQTLLGKEIKILKELKHENIVALYDFQEMANSVYLVMEYCNGGDLADYLHAMRTLSEDTIRLFLQQIAGAMRLLHSKGIIHRDLKPQNILLSNPAGRRANPNSIRVKIADFGFARYLQSNMMAATLCGSPMYMAPEVIMSQHYDGKADLWSIGTIVYQCLTGKAPFQASSPQDLRLFYEKNKTLVPTIPRETSAPLRQLLLALLQRNHKDRMDFDEFFHHPFLDASPSVRKSPPVPVPSYPSSGSGSSSSSSSTSHLASPPSLGEMQQLQKTLASPADTAGFLHSSRDSGGSKDSSCDTDDFVMVPAQFPGDLVAEAPSAKPPPDSLMCSGSSLVASAGLESHGRTPSPSPPCSSSPSPSGRAGPFSSSRCGASVPIPVPTQVQNYQRIERNLQSPTQFQTPRSSAIRRSGSTSPLGFARASPSPPAHAEHGGVLARKMSLGGGRPYTPSPQVGTIPERPGWSGTPSPQGAEMRGGRSPRPGSSAPEHSPRTSGLGCRLHAAPNLSDLHVVRPKLPKPPTDPLGAVFSPPQASPPQPSHGLQSCRNLRGSPKLPDFLQRNPLPPILGSPTKAVPSFDFPKTPSSQNLLALLARQGVVMTPPRNRALPDLSEVGPFHGQPLGPGLRPGEDPKGPFGRSFSTSRLTDLLLKAAFGTQAPDPGSTESLQEKPMEIAPSAGFGGSLHPGARAGGTSSPSPVVFTVGSPPSGSTPPQGPRTRMFSAGPTGSASSSARHLVPGPCSEAPAPELPAPGHGCSFADPITANLEGAVTFEAPDLPEETLMEQEHTEILRGLRFTLLFVQHVLEIAALKGSASEAAGGPEYQLQESVVADQISLLSREWGFAEQLVLYLKVAELLSSGLQSAIDQIRAGKLCLSSTVKQVVRRLNELYKASVVSCQGLSLRLQRFFLDKQRLLDRIHSITAERLIFSHAVQMVQSAALDEMFQHREGCVPRYHKALLLLEGLQHMLSDQADIENVTKCKLCIERRLSALLTGICA
Amino acids +, A769662 +, parent: est. 1.2
  response (relative AMPK-ULK1 interaction): 1
Amino acids +, A769662 -, parent: est. 1.0
  response (relative AMPK-ULK1 interaction): 0.4
Amino acids -, A769662 +, parent: est. 1.1
  response (relative AMPK-ULK1 interaction): 0.15
Amino acids -, A769662 -, parent: est. 0.25
  response (relative AMPK-ULK1 interaction): 0.1
